# In patent publication US20160200786A1:
# Ends that are not written are not given here.
# Legend:
# [1] = target: GST-BCL-2δC21 fusion protein [GST: P08515]; experiment: fluorescence polarization, 25 nM fluorescein-peptide titrated with GST-BCL-2, 37 C
# [2] = target: GST-BCL-2δC21 fusion protein [GST: P08515]; experiment: fluorescence polarization, unlabelled peptide displacing 25 nM fluoresceinated BIDBH3 from 1 µM GST-BCL-2
# [3] = target: GST-BCL-2δC21 fusion protein [GST: P08515]; experiment: fluorescence polarization, 25 nM fluorescein-peptide titrated with GST-BCL-2, 37 C; SD +/- 272
# [4] = target: GST-BCL-2δC21 fusion protein [GST: P08515]; experiment: fluorescence polarization, unlabelled peptide displacing 25 nM fluoresceinated BIDBH3 from 1 µM GST-BCL-2; SD +/- 1648
# [5] = target: GST-BCL-2δC21 fusion protein [GST: P08515]; experiment: fluorescence polarization, 25 nM fluorescein-peptide titrated with GST-BCL-2, 37 C; SD +/- 6
# [6] = target: GST-BCL-2δC21 fusion protein [GST: P08515]; experiment: fluorescence polarization, unlabelled peptide displacing 25 nM fluoresceinated BIDBH3 from 1 µM GST-BCL-2; SD +/- 60
# [7] = target: GST-BCL-2δC21 fusion protein [GST: P08515]; experiment: fluorescence polarization, 25 nM fluorescein-peptide titrated with GST-BCL-2, 37 C; SD +/- 11
# [8] = target: GST-BCL-2δC21 fusion protein [GST: P08515]; experiment: fluorescence polarization, Kd of BADBH3 against Kd of BIDBH3 on BCL-2
# Chain of NOXAABH3 (peptide) (peptide): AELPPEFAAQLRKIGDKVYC
Molecule,Kd [1] [nM],IC50 [2] [nM],also measured
NOXAABH3 (peptide),> 1000,> 30000,
MEGSDALALRLACIGDEMDV (not fully specified) [BIKBH3],,,Kd [3]: 485 nM; IC50 [4]: 4920 nM
LWAAQRYGRELRRMSDEFEGSFKGL (not fully specified) [mBADBH3],,,Kd [5]: 39 nM; IC50 [6]: 173 nM
EDIIRNIARHAAQVGASMDR (not fully specified) [BIDBH3 mut],> 1000,> 30000,
NLWAAQRYGRELRRMSDEFVDSFKK (not fully specified) [BADBH3],,,Kd [7]: 41 nM; fold greater affinity than BIDBH3 peptide [8]: 5 fold

# Now from value to molecule, other results behind:
Kd [1] [nM],IC50 [2] [nM],Molecule,also measured
> 1000,> 30000,NOXABBH3 (peptide),
> 1000,> 30000,VIPMAAVKQALREAGDEFEL (fluorescein at the amino-terminus via an AHA linker in the Kd assays; unlabelled as competitor and on mitochondria) [BCLXBH3],
